Results: the nanobody polyreactivity screen of Harvey et al. (2022)

Test: yeast display, Sf9 membrane polyspecificity reagent, FACS + sequencing; frameworks hold sequencing errors
Procedure, shortened: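 Nanobodies from a synthetic yeast display library (Saccharomyces cerevisiae BJ5465), induced 36–48 hours with galactose, were stained 1 hour at 4 °C with 10% biotinylated, detergent-solubilized Sf9 membrane reagent, enriched on streptavidin microbeads, then FACS-sorted. Anti-HA (expression) and streptavidin (reagent binding) fluorescence set low and high (top ~1%) gates. Polyreactivity labels come from the gate of origin. Genes were colony-PCR amplified, MiSeq 2 × 250 sequenced and filtered by CDR length.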

Row | Sequence | polyreactivity (PSR sort gate)
1 | QVQLVESGGGLVQGGGSLRLSCADSGRTSDGYPMRWYRQATGKERELVAVITEGGGDTYYADSVKGRFTISRDHSKNTVYLKMNSLKPEDSAVYYCNAVEGSRLTYDYWGQGTQVTVSS | low polyreactivity
2 | QVQLVESGGGLVQPGGSLRISCAASGSTFEYYAMGWYRQAPGKERELVAAITGSGGSTNYADSVKGRFTISRDNAKNTVYLQMNSLKPEDTAVYYCAADVYDAGVRYDYWGQGTQVTVSS | high polyreactivity
3 | QVQLVESGGGLVQPGGSLRLSCAASGFTFYTYAMGWYRQAPGKERELVATISSGGRTNYADSVKGRFTISRDNAKNTVYLQKNSLKPEDTAVYYCNIRLRGGAVRFDSWGQGTQVTVSS | low polyreactivity
4 | QVQLVESGGGLVQPGGSLRLSCAASGRIFYRYAMGWYRQAPGKERELVAAITARGGSTYYADSVKGRFTISRDNAKNTVYLQMNCLKPEDTAVYYCNKLLSNPYYPSYDYWGQGTQVTVSS | high polyreactivity
5 | QVQLVESGGGLVQPGGSLRLSCAASGRSFFGYPMGWYRQAPGKERELVATISGSGASTYYADSVKGRFTISRDNAKNTVYLQMNSLKPEDTAVYYFAARYVTNRHSRYYYWGQGTQVTVSS | high polyreactivity
6 | QVQLVESGGGLVQPGGSLRLSCAASGRTLHYNVMGWYRQAPGKEREFVAAITKSGGITYYADSVKGRFTISRDNAKNTVYLQMNSLKPEETAVDYCAADSPSWSWRISWSRYDYWGQGTQVTVSS | low polyreactivity
7 | QVQLVESGGGLVQPGGSLRLSCAASGSIFAWYVMGWYRQAPGKERELVAGIDTSGGTTFYADSVKGRFTISRDNAKNTVYVQMNSLKPEDTAVYYCAADTWYRGPWEFDYWGQGTQVTVSS | low polyreactivity
8 | QVQLVESGGGLVQPGGSLRLSCAASGYTSSPYAMGWYRQAPGKERELVAGISSGGSTYADSVKGRFTISRDNAKNTVYLQMISLKPEDTAVYYCADVWYYWTFEFDYWGQGTQVTVSS | high polyreactivity
9 | QVQLVESGGGLVQPGGSLRLSCSASGRIFDNYAMGWYRQAPGKEREFVARITSSGGSTYYADSVKGRFTISRDYAKNTVYLQMYSLKPEDTAVYYCAKRGWSSYCRYDSWGQGTQVTVSS | high polyreactivity
10 | QVQLVESGGGLVQPGGSLRLSSAASGITFPDYAMGWYRKAPGKERELVATITSSGGRTYYAHSVKGRFTISRDNAKNTVYLQMKSLKTEDTAVYYCAARRAYIRTLYYWGQGTQVTVSS | high polyreactivity
11 | QVQLVESGGGLVQPGGSLRLSWAASGSIFVGYAMGWYRQAPGKERELVAAISTRGGSTYYADSVKGRFTISRDNAKNTVYLQINSLKPEDTAVYYCAADYLDSTYGYVFGWDDYWGQGTLVTVSS | low polyreactivity
12 | QVQLVESGGGLVQPGGSLSLSCAASGFTFTYYAMGWYRQAPGKEMELVAAISWSGDSTYYADSVKGRFTISRDNAKNNVYLQMNSLKPEDSAVYYCGSEYSHTYDYWGQGTLVTVSS | low polyreactivity
13 | QVQLVESGGGLVQPGGTLRLTCAGSGSILTGNAMRWYRQAPGKERELVAAITSGGSTYYADSVKGRFTISRDNAKNTVYLQMNSLNQADSAGYYCAASRWRPLERGTTWLHDYWGQGTQVTVSS | low polyreactivity
14 | QVQLVESGGGLVQSGCSLRLSCAASGRIFDRYAMGSYRQAPGKERELVAAISSSGGSTYYADSVKGRFTISRDHAKNTVYLLMNSLKPEDTAVYYCATGTSRYRHQRDYWGQGTQVTVSS | high polyreactivity
15 | QVQLVESGGGLVQSGGSLRLSCAASGFIFGGYAMGWYRQAPGTERELVASITWSGGRTFYADSVKGRFTISRDNAKNTVYLQMNSLKPEDTEVYYCAAGIYFTPYYYYPPNPFDYWGQGTQVTVSS | low polyreactivity
16 | QVQLVESGGGLVQSGGSLRLSCAASGRIFGAYAMGWYRQAPGKDRELVAAITSAGSTHYADSVKGRFTISRDNAKNTVYLQMNSLKPEDTAVYYCAADGIASAYVLFDAYDFLYDYWGQGTQVTVSS | low polyreactivity
17 | QVQLVESGGGLVQSGGSLRLSCAASGRIFRAYAMGWYIQAPGQERELVADITSGSGSTYYADSVKGRFTISRDYANNTVYLHMNSLKTEDTAVYYCAAYVLIRVWEYYYWGQGTQVNVSS | low polyreactivity
18 | QVQLVESGGGLVQSGGSLRLSCAASGRIFRFYTMGWYRQAPGKERELVAAITQRGGRTYYADSVKGRFTISRDNAKNTVYLQMNSLKPEDTAVYYCAATTTVAEYDYWGQGTQVTVSS | high polyreactivity
19 | QVQLVESGGGLVQSGGSLRLSCAASGRIFTHYAMGWYRQAPGKERELVAALSRSGGSTYYADSVKGRFTISRDNAKNTVYLQLNSLIPEDTADYYCDADGGRYFYRGTYREMNYWAQGTQVTVSS | high polyreactivity
20 | QVQLVESGGGLVQSGGSLRLSCAASGRTFFKYSMGWYRQAPGKEREMVATITSSGGITYADSVKGRFTISRDNAKNSVYLQMNSLKPEDTAVYYCNARVWVTHYSELNYWGQGTQVTVSS | low polyreactivity
21 | QVQLVESGGGLVQSGGSLRLSCAASGRTFGYNAMGWYRQAPGKERELVAAISRSGDSTYYADSVKGRFTISRDNAKNTVYLQMNSLNPEVTAVFYCATRYVTTGYDYWGQGTQVTVSS | low polyreactivity
22 | QVQLVESGGGLVQSGGSLRLSCAASGRTFKSYAMGWYRQAPGKERELVAAITWSGGSTYYADSVKGRFTISRDNAKITVYFQMNSLKPEDTAVYYCAADSVYYYWYGYDYWGQGTQVTVSS | low polyreactivity

Row | Sequence | polyreactivity (PSR sort gate)
23 | QVQLVESGGGLVQSGGSLRLSCAASGRTFYNNAMGWYRQAPGKERELVATINNRGGTTYYADSVKGRFTISRDNAKNTVYLQMNSLKPEDTAVYYCANSAQRYSYRYYYWGQGTQVTVSS | high polyreactivity
24 | QVQLVESGGGLVQSGGSLRLSCAASGSIFDFYAMGWHRQAPGKERELVATITASGGSTYYADSVKGRFTISRDNAKITVYLQMNSLKPVDTAVYYCNADSVYWGQGTQVTVSS | low polyreactivity
25 | QVQLVESGGGLVQSGGSLRLSCAASGSILKPYAMGWYRQAPGKERELVAAIRSSGGRTNYADSVKGRFTISRDNAKNSVYLQMNSLKPEDTAVYYCAAGYVSYWYYRYDYWGQGTQVTVSS | high polyreactivity
26 | QVQLVESGGGLVQSGGSLRLSCAASGSTFASNAMGWYRQAPGTEMELVAAISRSADSTYYADSVKGRFTISRDNAKNTVYLQMNSLKPEDTAVYYCAARHSRYRNPKYYYWGQGTQVTVSS | high polyreactivity
27 | QVQLVESGGGLVQSGGSLRLSCAASGSTFGFYAMGGYRQAPGKERELVAAISRGGSTNYADSVKGRFTISRDNAKNTVSCQMNSLKPEDTAVYYCAKAYHATSYYWGQGTQVTVSS | low polyreactivity
28 | QVQLVESGGGLVQSGGSLRLSCAASGSTFTLYAMGWYRQAPGKERELVAAIRASVGRTYNADSVKGRFTISRDNAKNTVYLQMNSLKPEDTAVYYCNAYGRYGKFRVEYDYWGQGTQVTVSS | low polyreactivity
29 | QVQLVESGGGLVQSGGSLRLSCAASGSTIPSYALGWYRHAPGKERELVASITYSDGTTSYADSVKGRFTISRDNAKNTVYLQMNSLKPEDTAVYYCNAVYYREGMDYWGQGTQVTVSS | low polyreactivity
30 | QVQLVESGGGLVQSGGSLRLSCDASGITFKYAMGCYSQAPWKESELVAAISWSGGRTYYADSVKGRFTISRDNAKNTVYLQMNSLKPEDTAVYYCNAYRRYNDEDYWGQGTQVTVSS | high polyreactivity
31 | QVQLVESGGGLVQTGGSLRLICAASGRTFAVNDMGWYRQARGKERELVAAITWRGDSTYYADSVKGRFTISRDNAKNTVYLQMISLKPEDTAVYYCNAYYDGDWRYTSLETGEHWGQGTQVTVSS | low polyreactivity
32 | QVQLVESGGGLVQTGGSLRLSCAASGIIFYYYAMGWYRQAPGKERELVAAISWSGDGTYYADSVKGRFTISRDNAKNTVYLQMNSLKPEDTAVYYCAALNDGFTAYDYLDEYTDYGYWGQGTQVTVSS | low polyreactivity
33 | QVQLVESGGGLVQVGGSLRLSCAASGITLSYYAMGWYRQAPRKERELVASITVSRTSTYYADSVKGRFTISRDNAKNTVYLQMNSLKPEDTEVYYCNADGDHPYRRNDYWGQGTQVTVSS | low polyreactivity
34 | QVQLVESGGGLVRAGGSLRLSCAASGSTFTNNAMGWYRQAPGKERELVAAITWIGGNTYYADTVKGRFTISRDNAKNTVYLQMNSLKPEDTAVYYCAADRRSRYHDVYGWLYYYWGQGTQVTVSS | low polyreactivity
35 | QVQLVESGGGLYQAGGSLRLNCAASGYIFQTYAMVWYRQAPGKEREFVAAITSGAGRTSYADSVKGRFTISRDNAKNTVYLELNSLIPEVTAVYYCNARGRKRSYHRKSSDPYGYWGQGNQVTVSS | high polyreactivity
36 | QVQLVESGGGLYQAGGSLRLSCAASGRIFRYYAMGWYRQAPGKERELVAAINWSGGSTYYADSVKGRFTISRDNAKNTVYLQMNSLKPEDTAVYYCNTRWYVGDDWGQGTQVTVSS | high polyreactivity
37 | QVQLVESGGGLYQAGGSLRLTCAASGNIFYINTMGWYRQAPGKEMELVAAIEASDGSTYYADSVKGRFTISRDKAKNTVYLLMNSLKPEVTAVNYCATRRGYDSVYYFYTLWYYYWGQGTQVTVSS | low polyreactivity
38 | QVQLVESGGGRVQAGGSLRLRCAASGRTFRYYAMVWYRQAPGKERELVAAISRTGGSTYYADSVKGRFTISRDNAKNNVYLQMNSLKPEDTAVYYCAARYAEYGSWGQGTQVTVSS | high polyreactivity
39 | QVQLVESGGGSLRLSCAASALTFGGYTMGWYRQAPGKERELVAAISSSDSTNYADSVKGRFTISRDNAKNTVYLQMNSLKPEDTAVYYCAADSGQWSRYSSFGDEGDSWGQGTEVTVSS | low polyreactivity
40 | QVQLVESGGGSLRLSCAASGLTFGGYTMGWSRQAPGKERELFAAISSSDSTNYADSVKGRFTISRDNAKNTVYLQMNSLKPEDTAVYYCAADSGQWCRFSSFGDEGDSWGQGTQVTVSS | low polyreactivity
41 | QVQLVESGGGSLRLSCAASGLTFGGYTMGWYRQAPGKERELVAAISSSDSTNYADSVKGRFTISRDNAKNTVYLQMNSLKPEDTAVYYCAADSGQWSRYSSFGDEGDSWGQGTQVTVSS | low polyreactivity
42 | QVQLVESGGGSVQAGGSLRLSCAASGFIFDGYTMGWYRQAPGKERELVAAISRSGGRTYYADSVKGRFTISRDNAKHTVYLQLNSLKPEDTAVYYCAVRYRQYSQTVASDYGYWGQGTQVTVSS | high polyreactivity
43 | QVQLVESGGGSVQAGGSLRLSCAASGSIFYPYTMGWSRQAPGKERELVAVITGSGGRTYYADSVKGRFTISRDNAKNTVYLQMNSLKPEDTAVYYCNASPFTVRYYKYEYWGQGTQVTVSS | low polyreactivity
